Experimental data taken from US20230338569A1, “NaPi2b-TARGETED POLYMER ANTIBODY-DRUG CONJUGATE FOR THE TREATMENT OF OVARIAN CANCER” (Mersana Therapeutics, Inc., priority 2021, published 2023).

System: patients with higher NaPi2b expression
Assay: MER-XMT-1536-1 clinical trial (ongoing, preliminary data), XMT-1536 monotherapy
Format: in vivo, human
Details: patients with higher NaPi2b expression (n=47); preliminary data from MER-XMT-1536-1

B1: XMT-1536: NaPi2b-targeted polymer antibody-drug conjugate: about 8-12 AF-HPA molecules conjugated to cysteines of antibody XMT-1535 via a PHF scaffold (conjugate, chains of the INN, looked up)
VH: QVQLVQSGAEVVKPGASVKMSCKASGYTFTGYNIHWVKQAPGQGLEWIGAIYPGNGDTSYKQKFRGRATLTADTSTSTVYMELSSLRSEDSAVYYCARGETARATFAYWGQGTLVTVSS
VL: DIQMTQSPSSLSASVGDRVTITCSASQDIGNFLNWYQQKPGKTVKVLIYYTSSLYSGVPSRFSGSGSGTDYTLTISSLQPEDFATYYCQQYSKLPLTFGQGTKLELK
modifications: AF-HPA payload via PHF polymer scaffold
notes: NaPi2b-targeted polymer antibody-drug conjugate: about 8-12 AF-HPA molecules conjugated to cysteines of antibody XMT-1535 via a PHF scaffold
  DCR (disease control rate): 74%
  ORR (objective response rate): 32%
  median duration of response: approximately 5 months
